Earlier results as cited in paper PMC8062757.

Biological target: Myostatin (Gallus gallus) (UniProt O42220)
Sequence of UniProt O42220 (O42220 267-375): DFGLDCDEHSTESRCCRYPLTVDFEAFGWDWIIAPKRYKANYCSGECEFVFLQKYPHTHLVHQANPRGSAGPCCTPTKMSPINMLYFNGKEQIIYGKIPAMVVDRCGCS

Substance: Follistatin (from UniProt Q90844)
- Kd: 0.584 nM
